Values quoted from earlier work as cited in paper PMC3991732.

Target: ubiquitin (Homo sapiens) (UniProt P0CG48)
Experiment: NMR

Sequence of CD2AP SH3-C (Q9Y5K6 269-330): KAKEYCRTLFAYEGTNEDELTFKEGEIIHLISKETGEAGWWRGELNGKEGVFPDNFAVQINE

- Kd: 132 µM
Substance: CD2AP SH3-C (from UniProt Q9Y5K6)
